B1: R11 (peptide)
peptide: RRRRRRRRRRR
notes: Cell penetrating peptide part alone, used as a control; also called R11 peptide; R11 (negative control)

Key:
[1] = molecular target: PCNA (endogenous, in human cells and their extracts) (human) (UniProt P12004); experiment: co-IP with anti-PCNA antibody from formaldehyde-crosslinked HaCaT cell extract, gel, Orbitrap MS
MK2 (human) = MK2 (human) (UniProt P49137); experiment: mock co-IP with anti-TOM20 antibody from crosslinked HaCaT cell extract, Orbitrap MS
TAO1 (human) = TAO1 (human) (UniProt Q7L7X3); experiment: as above
PACT (human) = PACT (human) (UniProt O75569); experiment: as above
[2] = molecular target: T1, PCNA labeled with a fluorescent molecule (UniProt P12004 1-261, labeled with a fluorescent molecule (dye and site not stated)); experiment: microscale thermophoresis, fluorescently labelled PCNA, peptide titrated
T1 construct: also called proliferating cell nuclear antigen
Description: Microscale thermophoresis (MST) was used to determine the dissociation constant for various APIM containing peptides.
PCNA was labeled with a fluorescent molecule. The concentration of PCNA was kept constant, whereas dilutions of each APIM containing peptide were prepared (1:1).

PCNA (endogenous, in human cells and their extracts) (human), sequence (P12004 whole entry): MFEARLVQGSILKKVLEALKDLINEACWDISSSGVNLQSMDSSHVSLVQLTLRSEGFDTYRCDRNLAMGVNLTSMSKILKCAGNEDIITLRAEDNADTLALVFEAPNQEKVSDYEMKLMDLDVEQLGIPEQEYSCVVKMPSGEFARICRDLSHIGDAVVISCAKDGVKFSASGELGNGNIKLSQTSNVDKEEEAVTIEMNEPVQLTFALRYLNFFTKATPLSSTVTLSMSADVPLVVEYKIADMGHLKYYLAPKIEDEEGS
PACT (human), sequence (O75569 whole entry): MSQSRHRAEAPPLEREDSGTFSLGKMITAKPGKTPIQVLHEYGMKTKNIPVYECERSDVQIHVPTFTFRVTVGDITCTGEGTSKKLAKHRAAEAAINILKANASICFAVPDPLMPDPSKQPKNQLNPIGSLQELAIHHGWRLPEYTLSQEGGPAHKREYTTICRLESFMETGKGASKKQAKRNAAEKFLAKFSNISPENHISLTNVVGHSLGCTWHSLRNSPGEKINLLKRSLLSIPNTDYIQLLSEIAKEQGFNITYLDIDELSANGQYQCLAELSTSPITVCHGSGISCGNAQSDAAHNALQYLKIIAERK
T1 sequence (P12004 whole entry): as the sequence (P12004 whole entry) above
MK2 (human), sequence (P49137 whole entry): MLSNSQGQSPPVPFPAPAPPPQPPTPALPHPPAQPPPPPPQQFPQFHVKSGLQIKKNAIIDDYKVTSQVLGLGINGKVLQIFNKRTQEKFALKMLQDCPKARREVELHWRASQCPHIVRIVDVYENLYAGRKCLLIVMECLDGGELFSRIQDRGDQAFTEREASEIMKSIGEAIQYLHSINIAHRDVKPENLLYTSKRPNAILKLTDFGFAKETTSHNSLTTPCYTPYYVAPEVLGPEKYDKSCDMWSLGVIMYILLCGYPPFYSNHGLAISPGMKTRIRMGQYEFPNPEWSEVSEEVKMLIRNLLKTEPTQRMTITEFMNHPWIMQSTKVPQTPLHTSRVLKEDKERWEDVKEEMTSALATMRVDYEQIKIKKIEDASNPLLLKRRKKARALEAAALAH
TAO1 (human), sequence (Q7L7X3 whole entry): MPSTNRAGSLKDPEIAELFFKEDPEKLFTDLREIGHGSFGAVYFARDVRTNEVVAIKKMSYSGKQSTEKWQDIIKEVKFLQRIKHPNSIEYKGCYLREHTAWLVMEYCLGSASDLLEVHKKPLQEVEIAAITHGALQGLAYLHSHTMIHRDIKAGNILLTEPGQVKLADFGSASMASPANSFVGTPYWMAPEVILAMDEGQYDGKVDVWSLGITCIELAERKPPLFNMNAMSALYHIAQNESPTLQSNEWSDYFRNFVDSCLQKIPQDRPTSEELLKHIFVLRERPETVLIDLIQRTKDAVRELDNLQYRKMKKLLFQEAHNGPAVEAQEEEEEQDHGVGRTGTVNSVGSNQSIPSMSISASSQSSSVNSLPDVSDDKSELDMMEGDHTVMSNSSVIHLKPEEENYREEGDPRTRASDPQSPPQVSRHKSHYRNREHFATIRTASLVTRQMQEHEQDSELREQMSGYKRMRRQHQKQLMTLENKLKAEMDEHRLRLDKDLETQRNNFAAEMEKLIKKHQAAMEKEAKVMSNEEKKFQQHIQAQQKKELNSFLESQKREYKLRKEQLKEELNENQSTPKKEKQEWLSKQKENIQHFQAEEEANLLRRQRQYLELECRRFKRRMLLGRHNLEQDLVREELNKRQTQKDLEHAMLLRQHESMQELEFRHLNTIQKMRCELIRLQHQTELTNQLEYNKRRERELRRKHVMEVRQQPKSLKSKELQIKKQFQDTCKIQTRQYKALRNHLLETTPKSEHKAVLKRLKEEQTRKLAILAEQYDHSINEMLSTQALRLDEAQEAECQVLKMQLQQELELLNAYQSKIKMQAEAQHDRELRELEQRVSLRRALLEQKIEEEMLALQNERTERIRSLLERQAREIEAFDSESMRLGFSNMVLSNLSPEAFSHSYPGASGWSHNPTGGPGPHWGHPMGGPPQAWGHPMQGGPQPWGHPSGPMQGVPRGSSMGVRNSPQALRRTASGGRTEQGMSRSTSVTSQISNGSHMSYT

Row | Molecule | Mascot score (PCNA pull down) [1] | Sequest score (PCNA pull down) [1] | also measured
1 | MK2 (from UniProt P49137 1-400) (enzyme) | 27.6 | 6.33 | –
2 | PACT (from UniProt O75569 1-313) | 23 | 2.06 | –
3 | TAO1 (from UniProt Q7L7X3 1-1001) (enzyme) | 49.8 | 11.1 | –
4 | TOM20 (from UniProt Q15388 1-145) | – | – | Mascot-score (PCNA pull down) [1]: 32.5
5 | mock antibody specific for TOM20 | – | – | Sequest score (mock anti-TOM20 pull down) (MK2 (human)): 1.79; Sequest score (mock anti-TOM20 pull down) (TAO1 (human)): 2.09; Mascot score (mock anti-TOM20 pull down) (PACT (human)): 25.1; Sequest score (mock anti-TOM20 pull down) (PACT (human)): 1.61
6 | B1 | – | – | binding result [2]: no binding
